From patent publication US20250136702A1, “HUMAN LIFR ANTIGEN BINDING PROTEIN, PREPARATION METHOD THEREFOR, AND APPLICATION THEREOF” (NONA BIOSCIENCES (SUZHOU) CO., LTD., priority 2020, published 2025) come the findings set out here.

This experiment addresses human LIFR expressed on the surface of 293T cells (human) (UniProt P42702). Put plainly: flow cytometry on HEK293T-huLIFR cells, median fluorescence, span of the fitted curve. For orientation: In flow cytometry, cells or beads pass a laser one at a time.

Chain of human LIFR expressed on the surface of 293T cells (human) (P42702 45-1097): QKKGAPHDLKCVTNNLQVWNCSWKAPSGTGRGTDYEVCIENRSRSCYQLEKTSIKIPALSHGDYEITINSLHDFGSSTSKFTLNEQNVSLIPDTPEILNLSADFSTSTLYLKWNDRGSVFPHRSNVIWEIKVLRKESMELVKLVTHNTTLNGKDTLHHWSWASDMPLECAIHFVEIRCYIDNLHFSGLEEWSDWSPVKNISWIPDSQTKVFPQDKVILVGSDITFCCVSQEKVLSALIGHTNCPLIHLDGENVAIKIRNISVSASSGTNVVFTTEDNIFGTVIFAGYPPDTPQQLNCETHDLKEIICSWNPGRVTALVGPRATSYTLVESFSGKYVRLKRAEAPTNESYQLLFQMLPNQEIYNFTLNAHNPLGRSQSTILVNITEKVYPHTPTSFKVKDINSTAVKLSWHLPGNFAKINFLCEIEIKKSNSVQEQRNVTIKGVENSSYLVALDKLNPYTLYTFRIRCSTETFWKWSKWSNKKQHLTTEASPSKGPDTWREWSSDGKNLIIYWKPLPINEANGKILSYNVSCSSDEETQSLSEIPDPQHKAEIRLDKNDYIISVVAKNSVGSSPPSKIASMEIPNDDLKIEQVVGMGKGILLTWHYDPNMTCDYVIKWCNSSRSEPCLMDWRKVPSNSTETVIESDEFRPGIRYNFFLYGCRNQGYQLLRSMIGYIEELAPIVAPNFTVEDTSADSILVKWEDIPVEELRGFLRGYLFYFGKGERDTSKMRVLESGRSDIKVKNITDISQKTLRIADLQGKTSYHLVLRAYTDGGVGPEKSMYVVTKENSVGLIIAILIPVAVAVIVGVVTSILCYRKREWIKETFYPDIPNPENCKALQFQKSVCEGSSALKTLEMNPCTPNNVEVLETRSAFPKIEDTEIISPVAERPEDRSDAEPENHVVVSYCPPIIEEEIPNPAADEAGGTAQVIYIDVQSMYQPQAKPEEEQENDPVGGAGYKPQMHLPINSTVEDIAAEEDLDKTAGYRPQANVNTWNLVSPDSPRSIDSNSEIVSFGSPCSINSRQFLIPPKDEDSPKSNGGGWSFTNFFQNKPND

B1: PR301127 (antibody, human IgG1, kappa, V domains shown)
VH: EVQLLQSGGGLVQPGGSLRLSCAASGFTFSNYAMTWVRQAPGKGLEWVSTISGSGAFTYYADAVKGRFTISRVNSKNSLDLQMNSLRAEDTAVYYCAKGGILTGFDNWGQGTLVTVSS
VL: DIQMTQSPSTLSASVGDRVTITCRASQSISSWLAWYQQKPGKAPKLLIYKASSLESGVPSRFSGSGSGTEFSFTISSLQPDDFATYYCQQYKSFSPGGLTFGGGTKVEIKR
B1 came in with a Span of 237.
